Experiments:
[1] = target: NPM/ALK fusion protein (human); experiment: co-immunoprecipitation with anti-ALK serum, immunoblot, SUP-M2 lysates
[2] = target: wild-type NPM (nucleophosmin) (human) (UniProt P06748); experiment: co-immunoprecipitation, anti-NPM immunoblot
[3] = target: 85 kDa subunit of phosphatidylinositol 3-kinase (PI3-K) (human) (UniProt P27986); experiment: co-immunoprecipitation, immunoblot, SUP-M2 lysates
[4] = target: T1, Src homologous and collagen (SHC) protein (human) (UniProt P29353); experiment: co-immunoprecipitation, immunoblot, SUP-M2 lysates
T1 sequence (tyrosine-phosphorylated (sites not given), looked up): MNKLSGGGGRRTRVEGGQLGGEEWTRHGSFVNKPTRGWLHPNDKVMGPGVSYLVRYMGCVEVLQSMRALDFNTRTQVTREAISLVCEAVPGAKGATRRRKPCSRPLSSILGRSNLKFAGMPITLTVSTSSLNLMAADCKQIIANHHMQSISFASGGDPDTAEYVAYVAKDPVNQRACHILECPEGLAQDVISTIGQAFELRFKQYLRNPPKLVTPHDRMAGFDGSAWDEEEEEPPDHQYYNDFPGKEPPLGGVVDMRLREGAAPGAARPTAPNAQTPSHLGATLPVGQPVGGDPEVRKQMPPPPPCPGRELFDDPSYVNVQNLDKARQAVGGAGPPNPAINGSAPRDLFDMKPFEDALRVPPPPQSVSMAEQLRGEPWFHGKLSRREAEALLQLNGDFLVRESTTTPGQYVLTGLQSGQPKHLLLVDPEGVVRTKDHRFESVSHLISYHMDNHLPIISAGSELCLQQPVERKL

[5] = target: phospholipase-Cγ (PLC-γ) (human) (UniProt P19174); experiment: co-immunoprecipitation, immunoblot, SUP-M2 lysates
Chain of UniProt P19174 (P19174 2-1290): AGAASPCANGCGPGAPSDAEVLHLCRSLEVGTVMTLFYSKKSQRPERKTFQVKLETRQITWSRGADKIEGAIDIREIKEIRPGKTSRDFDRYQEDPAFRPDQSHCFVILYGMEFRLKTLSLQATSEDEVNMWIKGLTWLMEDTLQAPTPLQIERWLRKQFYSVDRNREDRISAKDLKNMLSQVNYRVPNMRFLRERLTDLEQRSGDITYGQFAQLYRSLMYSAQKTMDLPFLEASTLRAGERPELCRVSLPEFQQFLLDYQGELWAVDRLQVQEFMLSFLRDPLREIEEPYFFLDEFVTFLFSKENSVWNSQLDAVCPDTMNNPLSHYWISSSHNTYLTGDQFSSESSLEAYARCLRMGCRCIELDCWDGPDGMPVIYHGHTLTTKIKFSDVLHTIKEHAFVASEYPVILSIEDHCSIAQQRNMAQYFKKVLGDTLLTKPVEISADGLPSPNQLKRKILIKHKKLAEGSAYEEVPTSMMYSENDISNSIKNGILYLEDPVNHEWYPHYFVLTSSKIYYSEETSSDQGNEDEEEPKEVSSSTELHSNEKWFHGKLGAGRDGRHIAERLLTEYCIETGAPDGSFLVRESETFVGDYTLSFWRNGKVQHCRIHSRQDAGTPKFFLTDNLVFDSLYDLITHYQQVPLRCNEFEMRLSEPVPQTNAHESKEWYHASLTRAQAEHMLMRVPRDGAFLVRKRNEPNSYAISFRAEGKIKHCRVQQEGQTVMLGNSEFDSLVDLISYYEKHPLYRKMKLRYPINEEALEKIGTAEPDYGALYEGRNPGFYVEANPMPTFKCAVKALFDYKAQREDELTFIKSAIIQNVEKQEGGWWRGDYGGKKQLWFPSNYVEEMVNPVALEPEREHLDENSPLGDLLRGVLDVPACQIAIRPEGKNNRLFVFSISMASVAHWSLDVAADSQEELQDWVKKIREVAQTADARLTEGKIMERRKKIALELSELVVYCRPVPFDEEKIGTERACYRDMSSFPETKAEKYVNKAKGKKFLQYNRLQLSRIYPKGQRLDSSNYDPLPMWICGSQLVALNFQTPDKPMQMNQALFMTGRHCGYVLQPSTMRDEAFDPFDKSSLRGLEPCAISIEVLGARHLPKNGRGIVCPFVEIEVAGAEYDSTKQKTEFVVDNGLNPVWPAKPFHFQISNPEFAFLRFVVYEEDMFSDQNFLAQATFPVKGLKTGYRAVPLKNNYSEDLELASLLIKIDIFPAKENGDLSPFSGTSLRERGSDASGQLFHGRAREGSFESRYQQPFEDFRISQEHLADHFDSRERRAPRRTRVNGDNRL

Chain of UniProt P06748 (P06748 whole entry): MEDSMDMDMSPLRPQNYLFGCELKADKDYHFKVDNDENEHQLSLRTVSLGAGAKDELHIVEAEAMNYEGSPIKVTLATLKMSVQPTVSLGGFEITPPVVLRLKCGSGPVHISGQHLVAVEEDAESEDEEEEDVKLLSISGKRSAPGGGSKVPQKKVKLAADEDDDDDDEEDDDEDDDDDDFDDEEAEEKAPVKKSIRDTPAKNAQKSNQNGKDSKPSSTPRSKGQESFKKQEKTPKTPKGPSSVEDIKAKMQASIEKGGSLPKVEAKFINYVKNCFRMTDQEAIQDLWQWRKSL
Chain of UniProt P27986 (P27986 2-724): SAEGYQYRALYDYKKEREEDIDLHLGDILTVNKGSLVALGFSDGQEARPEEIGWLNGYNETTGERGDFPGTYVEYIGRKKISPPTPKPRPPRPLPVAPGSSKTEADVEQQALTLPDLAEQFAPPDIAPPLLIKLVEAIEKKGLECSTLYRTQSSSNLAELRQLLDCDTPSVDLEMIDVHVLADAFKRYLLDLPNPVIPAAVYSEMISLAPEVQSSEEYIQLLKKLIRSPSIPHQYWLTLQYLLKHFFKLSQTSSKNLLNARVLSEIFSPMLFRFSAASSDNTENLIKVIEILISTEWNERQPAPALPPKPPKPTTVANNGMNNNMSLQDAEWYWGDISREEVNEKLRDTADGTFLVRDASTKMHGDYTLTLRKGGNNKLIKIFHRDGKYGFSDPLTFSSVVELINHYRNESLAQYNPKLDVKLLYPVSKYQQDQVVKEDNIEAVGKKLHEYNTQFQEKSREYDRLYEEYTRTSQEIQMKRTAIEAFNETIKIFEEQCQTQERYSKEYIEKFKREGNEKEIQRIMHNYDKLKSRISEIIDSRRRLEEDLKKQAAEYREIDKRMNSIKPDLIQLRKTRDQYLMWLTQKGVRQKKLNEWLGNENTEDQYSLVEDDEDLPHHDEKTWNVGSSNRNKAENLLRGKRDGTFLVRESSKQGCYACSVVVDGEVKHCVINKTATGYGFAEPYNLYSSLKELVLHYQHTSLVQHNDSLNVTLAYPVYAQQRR

Substance	percentage of the total cellular amount of the substrate bound to NPM/ALK [1]	stoichiometry of the association (ratio) (ratio NPM/ALK:NPM) [2]	percentage of the total cell pool of NPM/ALK bound to the substrate [3]	percentage of the total cell pool of NPM/ALK bound to the substrate [4]	percentage of the total cell pool of NPM/ALK bound to the substrate [5]
85 kDa subunit of phosphatidylinositol 3-kinase (PI3-K) (from UniProt P27986 2-724)	1%				
NPM/ALK fusion protein (enzyme)		1	< 5%	< 5%	< 5%
Src homologous and collagen (SHC) protein (from UniProt P29353 1-473)	10%				
phospholipase-Cγ (PLC-γ) (from UniProt P19174 2-1290) (enzyme)	1%				
